Assay results: publication doi:10.1101/2021.03.17.435802 (bioRxiv, 2021)

Target: SARS-CoV-2 S1 WT (in-house) (SARS-CoV-2, UniProt P0DTC2)
Assay: SPR

B1: REGN10987 (antibody, V domains shown)
VH: QVQLVESGGGVVQPGRSLRLSCAASGFTFSNYAMYWVRQAPGKGLEWVAVISYDGSNKYYADSVKGRFTISRDNSKNTLYLQMNSLRTEDTAVYYCASGSDYGDYLLVYWGQGTLVTVSS
VL: QSALTQPASVSGSPGQSITISCTGTSSDVGGYNYVSWYQQHPGKAPKLMIYDVSKRPSGVSNRFSGSKSGNTASLTISGLQSEDEADYYCNSLTSISTWVFGGGTKLTVL
- binding result: binds
